Laboratory results from US20250290928A1, “METHOD, KIT AND DEVICE FOR DETECTING EXTRACELLULAR VESICLES” (priority 2022, published 2025).
No end group written: not given here. *: point of attachment. 5FAM = O=C1OC2(c3ccc(O)cc3Oc3cc(O)ccc32)c2ccc(C(=O)*)cc21; TQ2 = quencher; TQ3 = quencher

Biological target: T1, MMP14 in the MDA-MB-231-derived extracellular vesicles (Homo sapiens, UniProt P50281)
T1 construct: in terms of intact MMP14 with a molecular weight of 70 kDa
Experiment: Digital detection through MMP14 activity of MDA-MB-231-derived extracellular vesicles captured on Tim4-immobilized magnetic particles
Type: biochemical
Protocol: Magnetic particles included in PS Capture (trademark) Exosome Flow Cytometry Kit (manufactured by FUJIFILM Corporation) were used as magnetic particles. In this kit, binding of an extracellular vesicle to a Tim4-immobilized magnetic particle is utilized.
800 μL of Exosome Capture Beads were aliquoted in a 1.5 mL microtube, vortexed for 5 seconds, spun down in a benchtop centrifuge, and then placed on a magnetic stand. After still standing for 1 minute, the supernatant was removed by pipetting. 1 mL of x1 WB (+Enhancer) prepared from x10 Washing Buffer and x100 Exosome Binding Enhancer included in the kit was added to the residue, the mixture was vortexed for 5 seconds, spun down in a benchtop centrifuge, and then placed on a magnetic stand. After still standing for 1 minute, the supernatant was removed by pipetting. This operation was repeated three times.
800 μL of the buffer (4) was added to the magnetic particle pellets, and the mixture was vortexed for 30 seconds to provide a homogeneous magnetic particle suspension. 60 μL of the suspension was aliquoted into each of twelve 1.5 mL microtubes.
The concentration of the solution is 4 μg/mL. […] Further, the concentration of the x1/5 solution was set to be the highest concentration, and 10-fold dilution was performed in four stages. Thus, 10-fold dilution samples in a total of five stages were obtained.
The magnetic particle suspension that had been aliquoted in each amount of 60 μL in the section “(Preparation of Particles)” was vortexed for 5 seconds, spun down in a benchtop centrifuge, and then placed on a magnetic stand. After still standing for 1 minute, the supernatant was removed by pipetting.
After that, the above-mentioned mixed solution was spun down in a benchtop centrifuge, then placed on a magnetic stand, and left to stand still for 1 minute. After that, the supernatant was removed by pipetting, 300 μL of the buffer (4) was added to the residue, and the mixture was vortexed for 5 seconds. The mixture was spun down in a benchtop centrifuge, then placed on a magnetic stand, and left to stand still for 1 minute. The same operation was further repeated twice.
For detection of MMP14 activity, 1 mM Custom #1 and Custom #2 were diluted with the buffer (4) to prepare MMP14 detection solutions containing 5 μM Custom #1 and Custom #2, respectively.
The supernatant of the mixed solution of the magnetic particles and the extracellular vesicles subjected to the washing was removed by pipetting, and 60 μL of each of the MMP14 detection solutions was added to each of the magnetic particle pellets to prepare a reaction solution for wells.
Magnosphere (trademark) MS300/Streptavidin (manufactured by JSR Corporation) (hereinafter abbreviated as “MS300S”) was used as magnetic particles. The magnetic particles were modified with Tim4 through use of Biotin-labeled Exosome Capture included in MagCapture (trademark) Exosome Isolation Kit PS Ver. 2 (manufactured by FUJIFILM Corporation) (hereinafter abbreviated as “PS2”) to prepare Tim4-immobilized magnetic particles.
10 μL of Biotin-labeled Exosome Capture was added to the suspension, and the mixture was vortexed for 5 seconds so that the contents were mixed. The mixture was subjected to a reaction for 10 minutes while the contents were mixed by inversion at room temperature with a rotator. After that, the resultant was spun down in a benchtop centrifuge, and then placed on a magnetic stand. After still standing for 1 minute, the supernatant was removed by pipetting. 500 μL of x1 I/WB (±Enhancer) was added to the residue, and the mixture was vortexed for 5 seconds, spun down in a benchtop centrifuge, and then placed on a magnetic stand. After still standing for 1 minute, the supernatant was removed by pipetting. This operation was further repeated twice. […]

[1] = Table 56, Particle MS300C, MB231 Present, 24 hours at 23° C.
[2] = Table 56, Particle Simoa, MB231 Present, 24 hours at 23° C.
[3] = Example 49, PS Capture Tim4 particles, 30° C., 4 h
[4] = Example 50, MS300S Tim4 particles, 30° C., 4 h
[5] = Table 52, particles modified with Tim4, MB231 concentration x1/5, 4 hr
[6] = Table 52, particles modified with Tim4, MB231 concentration x1/50, 4 hr
[7] = Table 52, particles modified with Tim4, MB231 concentration x1/500, 4 hr
[8] = Table 52, particles modified with Tim4, MB231 concentration x1/5,000, 4 hr
[9] = Table 52, particles modified with Tim4, MB231 concentration x1/50,000, 4 hr
[10] = Table 53, BG subtracted, MB231 concentration x1/5, 4 hr
[11] = Table 53, BG subtracted, MB231 concentration x1/50, 4 hr
[12] = Table 53, BG subtracted, MB231 concentration x1/500, 4 hr
[13] = Table 53, BG subtracted, MB231 concentration x1/5,000, 4 hr
[14] = Table 53, BG subtracted, MB231 concentration x1/50,000, 4 hr
[15] = Table 54, particles immobilized with Tim4, MB231 concentration x1/5, 4 hr
[16] = Table 54, particles immobilized with Tim4, MB231 concentration x1/25, 4 hr
[17] = Table 54, particles immobilized with Tim4, MB231 concentration x1/125, 4 hr
[18] = Table 54, particles immobilized with Tim4, MB231 concentration x1/625, 4 hr
[19] = Table 54, particles immobilized with Tim4, MB231 concentration x1/3,125, 4 hr
[20] = Table 54, particles immobilized with Tim4, MB231 concentration x1/15,625, 4 hr
[21] = Table 54, particles immobilized with Tim4, MB231 concentration x1, 4 hr
[22] = Table 55, BG subtracted, MB231 concentration x1/5, 4 hr
[23] = Table 55, BG subtracted, MB231 concentration x1/25, 4 hr
[24] = Table 55, BG subtracted, MB231 concentration x1/125, 4 hr
[25] = Table 55, BG subtracted, MB231 concentration x1/625, 4 hr
[26] = Table 55, BG subtracted, MB231 concentration x1/3,125, 4 hr
[27] = Table 55, BG subtracted, MB231 concentration x1/15,625, 4 hr
[28] = Table 55, BG subtracted, MB231 concentration x1, 4 hr
[29] = Table 53, BG subtracted, MB231 concentration x1, 4 hr

In the case of “TAMRA-GGPLGLAGGK(TQ3) ({TAMRA}-GGPLGLAGGK(TQ3)) [Custom #2T]”, the “Particle Expected value λ” value [1] was 0.2937, the “Particle Positive ratio” value [1] was 0.2545 and the “Particle Expected value λ” value [2] was 0.07748. The “Particle Positive ratio” value [2] was 0.07456.

With “[5-FAM]GGPLGLAGGK(TQ2)[OH] (5FAM-GGPLGLAGGK(TQ2)-OH) [Custom #2]” the “number of the extracellular vesicles” value [3] was 1.18×10^5 /μg of protein, the “number of the extracellular vesicles” value (Example 50, 6×10^5 particles, 2 μg of protein) was 1.77×10^5 and the “expected value Δλ per particle (value obtained by subtracting BG) at a concentration of x1” value [4] was 0.2953. The “number of the extracellular vesicles” value [4] was 8.86×10^4 /μg of protein, the “Particle Expected value λ” value [5] was 0.2744 and the “Particle Number of positives” value [5] was 557. The “Particle Positive ratio” value [5] was 0.24, the “Particle Expected value λ” value [6] was 0.09639 and the “Particle Number of positives” value [6] was 246. The “Particle Positive ratio” value [6] was 0.09189, the “Particle Expected value λ” value [7] was 0.03784 and the “Particle Number of positives” value [7] was 181. For the same substance, the “Particle Positive ratio” value [7] was 0.03714, the “Particle Expected value λ” value [8] was 0.01211 and the “Particle Number of positives” value [8] was 37. The “Particle Positive ratio” value [8] was 0.01204, the “Particle Expected value λ” value [9] was 0.00551 and the “Particle Number of positives” value [9] was 17. For the same substance, the “Particle Positive ratio” value [9] was 0.00549, the “Particle Expected value Δλ” value [10] was 0.2716 and the “Particle Δ Number of positives” value [10] was 552. For the same substance, the “Particle Δ Positive ratio” value [10] was 0.2378, the “Particle Expected value Δλ” value [11] was 0.09434 and the “Particle Δ Number of positives” value [11] was 241. The “Particle Δ Positive ratio” value [11] was 0.09003, the “Particle Expected value Δλ” value [12] was 0.03678 and the “Particle Δ Number of positives” value [12] was 176. The “Particle Δ Positive ratio” value [12] was 0.03611, the “Particle Expected value Δλ” value [13] was 0.01047 and the “Particle Δ Number of positives” value [13] was 32. The “Particle Δ Positive ratio” value [13] was 0.01041, the “Particle Expected value Δλ” value [14] was 0.00388 and the “Particle Δ Number of positives” value [14] was 12. The “Particle Δ Positive ratio” value [14] was 0.00388, the “Particle Expected value λ” value [15] was 0.1892 and the “Particle Number of positives” value [15] was 1,235. The “Particle Positive ratio” value [15] was 0.1723, the “Particle Expected value λ” value [16] was 0.1044 and the “Particle Number of positives” value [16] was 643. For the same substance, the “Particle Positive ratio” value [16] was 0.09911, the “Particle Expected value λ” value [17] was 0.06097 and the “Particle Number of positives” value [17] was 385. For the same substance, the “Particle Positive ratio” value [17] was 0.05915, the “Particle Expected value λ” value [18] was 0.03309 and the “Particle Number of positives” value [18] was 225. For the same substance, the “Particle Positive ratio” value [18] was 0.03255, the “Particle Expected value λ” value [19] was 0.02229 and the “Particle Number of positives” value [19] was 166. The “Particle Positive ratio” value [19] was 0.02204, the “Particle Expected value λ” value [20] was 0.01639 and the “Particle Number of positives” value [20] was 88. For the same substance, the “Particle Positive ratio” value [20] was 0.01625, the “Particle Expected value λ” value [21] was 0.2912 and the “Particle Number of positives” value [21] was 1,744. The “Particle Positive ratio” value [21] was 0.2526, the “Particle Expected value Δλ” value [22] was 0.1853 and the “Particle Δ Number of positives” value [22] was 1,212. For the same substance, the “Particle Δ Positive ratio” value [22] was 0.1691, the “Particle Expected value Δλ” value [23] was 0.1004 and the “Particle Δ Number of positives” value [23] was 620. The “Particle Δ Positive ratio” value [23] was 0.09556, the “Particle Expected value Δλ” value [24] was 0.05722 and the “Particle Δ Number of positives” value [24] was 362. The “Particle Δ Positive ratio” value [24] was 0.05562, the “Particle Expected value Δλ” value [25] was 0.02966 and the “Particle Δ Number of positives” value [25] was 202. The “Particle Δ Positive ratio” value [25] was 0.02922, the “Particle Expected value Δλ” value [26] was 0.01917 and the “Particle Δ Number of positives” value [26] was 143. For the same substance, the “Particle Δ Positive ratio” value [26] was 0.01899, the “Particle Expected value Δλ” value [27] was 0.01208 and the “Particle Δ Number of positives” value [27] was 65. The “Particle Δ Positive ratio” value [27] was 0.01201, the “Particle Expected value Δλ” value [28] was 0.2868 and the “Particle Δ Number of positives” value [28] was 1,721. For the same substance, the “Particle Δ Positive ratio” value [28] was 0.2493, the “Particle Expected value λ” value [1] was 0.2899 and the “Particle Positive ratio” value [1] was 0.2517. For the same substance, the “Particle Expected value λ” value [2] was 0.3046 and the “Particle Positive ratio” value [2] was 0.2626.

For “[5-FAM]GRIGFLRTAK(TQ2)[OH] (5FAM-GRIGFLRTAK(TQ2)-OH) [Custom #1]”, the “number of the extracellular vesicles” value (Example 49, 6×10^5 particles, 3 μg of protein at x1) was 1.04×10^6, the “expected value Δλ per particle (value obtained by subtracting BG) at a concentration of x1” value [3] was 1.7373 and the “number of the extracellular vesicles” value [3] was 3.47×10^5 /μg of protein. The “Particle Expected value λ” value [5] was 0.831, the “Particle Number of positives” value [5] was 1,240 and the “Particle Positive ratio” value [5] was 0.5644. For the same substance, the “Particle Expected value λ” value [6] was 0.06966, the “Particle Number of positives” value [6] was 165 and the “Particle Positive ratio” value [6] was 0.06729. The “Particle Expected value λ” value [7] was 0.03312, the “Particle Number of positives” value [7] was 89 and the “Particle Positive ratio” value [7] was 0.03258. The “Particle Expected value λ” value [8] was 0.01344, the “Particle Number of positives” value [8] was 41 and the “Particle Positive ratio” value [8] was 0.01335. The “Particle Expected value λ” value [9] was 0.01169, the “Particle Number of positives” value [9] was 30 and the “Particle Positive ratio” value [9] was 0.01162. The “Particle Expected value Δλ” value [11] was 0.05749, the “Particle Δ Number of positives” value [11] was 137 and the “Particle Δ Positive ratio” value [11] was 0.05587. The “Particle Expected value Δλ” value [12] was 0.02258, the “Particle Δ Number of positives” value [12] was 61 and the “Particle Δ Positive ratio” value [12] was 0.02233. The “Particle Expected value Δλ” value [13] was 0.00424, the “Particle Δ Number of positives” value [13] was 13 and the “Particle Δ Positive ratio” value [13] was 0.00423. The “Particle Expected value Δλ” value [14] was 0.00078, the “Particle Δ Number of positives” value [14] was 2 and the “Particle Δ Positive ratio” value [14] was 0.00077. For the same substance, the “Particle Expected value Δλ” value [29] was 0.8022, the “Particle Δ Number of positives” value [29] was 1,212 and the “Particle Δ Positive ratio” value [29] was 0.5517.
